One protein from paper PMC1249579, “RLIP76, a non-ABC transporter, and drug resistance in epilepsy” (BMC Neuroscience, 2005) can be followed below.

Holding throughout (assay): purified protein
Assay type in all cases: biochemical, Homo sapiens

Substrate in data set [1]: O=C1NC(=O)C(c2ccccc2)(c2ccccc2)N1
The following applies: ATP held constant, ATP-dependent transport, MgCl2, pH 7.4, labelled compound.

Substrate in data set [2]: Nc1ncnc2c1ncn2[C@@H]1O[C@H](COP(=O)(O)OP(=O)(O)OP(=O)(O)O)[C@@H](O)[C@H]1O
Particulars: co-substrate phenytoin held constant, MgCl2, pH 7.4.

Substrate in data set [3]: NC(=O)N1c2ccccc2C=Cc2ccccc21
The following applies: ATP held constant, ATP-dependent transport, MgCl2, pH 7.4, labelled compound.

B1: RLIP76 (Homo sapiens) (protein)
chain: MTECFLPPTSSPSEHRRVEHGSGLTRTPSSEEISPTKFPGLYRTGEPSPPHDILHEPPDVVSDDEKDHGKKKGKFKKKEKRTEGYAAFQEDSSGDEAESPSKMKRSKGIHVFKKPSFSKKKEKDFKIKEKPKEEKHKEEKHKEEKHKEKKSKDLTAADVVKQWKEKKKKKKPIQEPEVPQIDVPNLKPIFGIPLADAVERTMMYDGIRLPAVFRECIDYVEKYGMKCEGIYRVSGIKSKVDELKAAYDREESTNLEDYEPNTVASLLKQYLRDLPENLLTKELMPRFEEACGRTTETEKVQEFQRLLKELPECNYLLISWLIVHMDHVIAKELETKMNIQNISIVLSPTVQISNRVLYVFFTHVQELFGNVVLKQVMKPLRWSNMATMPTLPETQAGIKEEIRRQEFLLNCLHRDLQGGIKDLSKEERLWEVQRILTALKRKLREAKRQECETKIAQEIASLSKEDVSKEEMNENEEVINILLAQENEILTEQEELLAMEQFLRRQIASEKEEIERLRAEIAEIQSRQQHGRSETEEYSSESESESEDEEELQIILEDLQRQNEELEIKNNHLNQAIHEEREAIIELRVQLRLLQMQRAKAEQQAQEDEEPEWRGGAVQPPRDGVLEPKAAKEQPKAGKEPAKPSPSRDRKETSI
notes: pET30a(+), E. coli BL21(DE3); reconstituted in asolectin-cholesterol liposomes
What is called Km is the concentration of substrate that gives half-maximal velocity. For the protein B1, the Km in the data set “purified protein [1]” was 0.43 µM; in the data set “purified protein [2]”, 1.33 mM; in “purified protein [3]”, 0.25 µM.
